T1: peptide 13 (Homo sapiens, UniProt O00182)
T1 construct: 15-mer of human gal-9, thirteenth of 15 overlapping peptides spanning aa 202-230 (gal-9L coordinates) with a shift of one aa; limits worked out from peptide 1 = 202-216; they are counted from the set
T1 chain: PPMMYPHPAYPMPFI

T2: peptide 12 (Homo sapiens, UniProt O00182)
T2 construct: 15-mer of human gal-9, twelfth of 15 overlapping peptides spanning aa 202-230 (gal-9L coordinates) with a shift of one aa; limits worked out from peptide 1 = 202-216; they are counted from the set
T2 chain: IPPMMYPHPAYPMPF

B1: Gal-Nab1 (antibody, V domains shown)
VH: KVQLQQSGAELVKPGASVKLSCKASGYTFTDYTIHWVKQRSGQGLEWIGWFYPGSHSIKYNEQFKDRATLTADKSSSTVYMELSRLTSEDSAVYFCTRHGGYDGFDYWGQGTTLTVSS
VL: DIVMSQSPSSLAVSVGEKITMSCKSSQSLFYSTNQKNYLAWYQQKPGQSPKLLIYWASTRESGVPDRFTGSGSGTDFTLTISSVKAEDLAVYYCQQYYYFPYTFGGGTKLEIK
notes: heavy chain CDR1; heavy chain CDR2; heavy chain CDR3; mouse IgG1 heavy chain constant region (isotype IgG1, kappa as stated); light chain CDR1; light chain CDR2; light chain CDR3; mouse kappa light chain constant region (isotype IgG1, kappa as stated); Mouse IgG1, kappa; Raised against the C-terminal part of human gal-9 (residues 191 to 355 of gal-9L); also called anti-gal-9 mAb
B2: Gal-Nab2 (antibody, V domains shown)
VH: KVQLQQSGAELVKPGASVKLSCKASGYTFTEYTIHWVKQRSGQGLEWIGWFYPGSGSMEYNEKFDKATLTADNSSSTVYMELSRLTSEDSAVYFCERHGGYDGFDYWGQGTTLTVSS
VL: DIVMSQSPSSLAVSVGEKVTMSCKSSQSLLYSNNQKNYLAWYQQKPGQSPKLLIYWASTRGSGVPDRFTGSGSGTDFTLTISSVKAEDLAIYYCQQYYSYPFTFGGGTKLEIK
notes: heavy chain CDR1; that of Gal-Nab1 has 17); heavy chain CDR3; mouse IgG1 heavy chain constant region (isotype IgG1, kappa as stated); light chain CDR1; light chain CDR2; light chain CDR3; mouse kappa light chain constant region (isotype IgG1, kappa as stated); Mouse IgG1, kappa; Raised against the C-terminal part of human gal-9 (residues 191 to 355 of gal-9L); also called anti-gal-9 mAb

Tests used:
[1] = target: T1, peptide 13; assay: ELISA; competition: Gal-Nab1 (0.06 μg/mL) or Gal-Nab2 (0.3 μg/mL) pre-incubated with each 15-mer peptide (0.0001 to 10 μg/mL), then added to plates coated with gal-9; HRP-conjugated anti-mouse antibodies; percent inhibition; settings: both partners purified
[2] = target: T2, peptide 12; assay: as above; settings: both partners purified
[3] = target: T3, CTB oligopeptide containing the amino-acids 208 to 232 of gal-9L (Homo sapiens, biotin at the C-terminus: K(biotin)-OH); assay: SPR; Biacore T200; biotinylated CTB or scramble oligopeptide on a streptavidin (SA) chip; Gal-Nab1 and Gal-Nab2 as analytes, 0.05 to 3.2 nM, 40 μL/min, 700 s, PBS with albumin 0.1 mg/mL and tween 0.05%; dissociation 800 s; apparent affinities (avidity); design: t1/2: unit not given here; settings: both partners purified
T3 construct: stuffer aa not related to gal-9, designed to increase solubility and accessibility; stuffer aa not related to gal-9; the last lysine carries the biotin; 32-mer; also called CTB-gal-9 peptide; CTB peptide

[4] = target: T4, human galectin-8 (Homo sapiens, UniProt O00214, biotin (sites not given)); assay: ELISA; direct ELISA: antibodies coated in a 96-well plate; biotinylated galectins at 1 nM, detected by streptavidin-HRP; for gal-9S also 1h at 37°C with or without lactose 20 mM (S1 Fig); settings: both partners purified
T4 construct: human galectin-8, recombinant; also called h-Gal 8; source: recombinant

[5] = target: T5, human galectin-7 (Homo sapiens, UniProt P47929, biotin (sites not given)); assay: as above; settings: both partners purified
T5 construct: human galectin-7, recombinant; also called h-Gal 7; source: recombinant

[6] = target: T6, human galectin-10 (Homo sapiens, UniProt Q05315, biotin (sites not given)); assay: as above; settings: both partners purified
T6 construct: human galectin-10, recombinant; also called h-Gal 10; source: recombinant

[7] = target: T7, human galectin-4 (Homo sapiens, UniProt P56470, biotin (sites not given)); assay: as above; settings: both partners purified
T7 construct: human galectin-4, recombinant; also called h-Gal 4; source: recombinant

[8] = target: T8, human galectin-1 (Homo sapiens, UniProt P09382, biotin (sites not given)); assay: as above; settings: both partners purified
T8 construct: human galectin-1, recombinant; also called h-Gal 1; source: recombinant

[9] = target: T9, human galectin-2 (Homo sapiens, UniProt P05162, biotin (sites not given)); assay: as above; settings: both partners purified
T9 construct: human galectin-2, recombinant; also called h-Gal 2; source: recombinant

[10] = target: human recombinant galectin-9, short isoform (gal-9S) (Homo sapiens, UniProt O00182-3, strain, biotin in the direct ELISA (sites not given); unlabelled in the cell assays); assay: cell-based or functional assay
human recombinant galectin-9, short isoform (gal-9S), sequence (O00182 whole entry, looked up, change not shown, canonical isoform): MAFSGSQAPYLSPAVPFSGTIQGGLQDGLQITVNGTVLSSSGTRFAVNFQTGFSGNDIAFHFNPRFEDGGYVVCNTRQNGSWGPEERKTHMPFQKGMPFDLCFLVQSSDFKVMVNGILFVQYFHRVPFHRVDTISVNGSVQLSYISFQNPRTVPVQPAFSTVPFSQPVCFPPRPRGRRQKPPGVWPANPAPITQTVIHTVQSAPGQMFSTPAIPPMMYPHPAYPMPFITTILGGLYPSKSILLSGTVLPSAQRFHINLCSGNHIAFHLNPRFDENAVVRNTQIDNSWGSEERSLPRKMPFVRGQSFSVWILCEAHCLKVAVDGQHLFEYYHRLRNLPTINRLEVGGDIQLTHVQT

T3 sequence (chain, as listed by the source): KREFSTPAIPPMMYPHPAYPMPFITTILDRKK
T8 sequence (P09382 whole entry): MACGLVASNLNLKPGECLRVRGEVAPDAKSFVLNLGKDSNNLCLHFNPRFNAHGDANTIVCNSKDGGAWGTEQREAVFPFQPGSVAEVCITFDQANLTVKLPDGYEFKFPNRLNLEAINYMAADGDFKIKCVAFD
T4 sequence (O00214 whole entry): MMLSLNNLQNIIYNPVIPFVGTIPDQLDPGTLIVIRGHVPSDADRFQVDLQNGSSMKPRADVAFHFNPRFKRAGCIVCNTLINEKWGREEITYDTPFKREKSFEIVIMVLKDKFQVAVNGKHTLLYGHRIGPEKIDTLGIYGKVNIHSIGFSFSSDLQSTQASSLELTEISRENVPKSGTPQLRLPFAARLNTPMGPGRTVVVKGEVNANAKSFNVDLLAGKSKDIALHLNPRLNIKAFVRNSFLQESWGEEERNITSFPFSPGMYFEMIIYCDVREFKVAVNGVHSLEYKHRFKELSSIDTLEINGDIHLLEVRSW
T6 sequence (Q05315 whole entry): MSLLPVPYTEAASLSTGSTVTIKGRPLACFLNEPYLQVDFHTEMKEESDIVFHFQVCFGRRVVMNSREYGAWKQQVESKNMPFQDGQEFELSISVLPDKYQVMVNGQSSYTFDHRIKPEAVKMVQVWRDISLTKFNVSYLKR
T7 sequence (P56470 whole entry): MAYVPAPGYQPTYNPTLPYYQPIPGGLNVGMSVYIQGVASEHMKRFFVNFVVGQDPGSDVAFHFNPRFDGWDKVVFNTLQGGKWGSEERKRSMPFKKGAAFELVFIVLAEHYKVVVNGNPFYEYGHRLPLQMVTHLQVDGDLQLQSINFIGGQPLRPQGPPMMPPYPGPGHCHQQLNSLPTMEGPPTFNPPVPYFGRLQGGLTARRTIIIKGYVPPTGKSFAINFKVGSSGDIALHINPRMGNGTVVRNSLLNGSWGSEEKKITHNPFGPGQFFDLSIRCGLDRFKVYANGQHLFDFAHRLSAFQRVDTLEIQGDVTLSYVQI
T9 sequence (P05162 whole entry): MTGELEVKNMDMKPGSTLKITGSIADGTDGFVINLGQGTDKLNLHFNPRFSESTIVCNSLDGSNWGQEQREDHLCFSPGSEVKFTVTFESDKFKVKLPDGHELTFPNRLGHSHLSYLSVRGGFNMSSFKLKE
T5 sequence (P47929 whole entry): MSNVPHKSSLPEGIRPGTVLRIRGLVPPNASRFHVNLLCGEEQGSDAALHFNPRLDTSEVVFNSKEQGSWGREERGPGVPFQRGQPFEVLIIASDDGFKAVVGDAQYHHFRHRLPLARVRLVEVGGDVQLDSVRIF

Row | Binder | binding result [1] | binding result [2] | Kd [3] [nM] | koff [3] [s⁻¹] | kon [3] [M⁻¹ s⁻¹] | t1/2 [3] | binding result [4] | binding result [5] | binding result [6] | binding result [7] | binding result [8] | binding result [9] | EC50 of prevention of gal-9-induced apoptotic death (annexin-V+ PI+) of activated primary CD3+ T cells; gal-9S 40 nM, 36 h, antibody 0.3 to 100 nM [10] [nM] | EC50 of reduction of gal-9-induced non-lethal PS translocation (annexin-V+ PI-) in activated primary CD3+ T cells; gal-9S 40 nM, 36 h, antibody 0.3 to 100 nM [10] [nM]
1 | B1 | binds | binds | 0.01 | 2.3e-05 | 2.3e+06 | 8.37 | no binding (tested: 1 nM) | no binding (tested: 1 nM) | no binding (tested: 1 nM) | no binding (tested: 1 nM) | no binding (tested: 1 nM) | no binding (tested: 1 nM) | 10 | 50
2 | B2 |  | binds |  |  |  |  | no binding (tested: 1 nM) | no binding (tested: 1 nM) | no binding (tested: 1 nM) | no binding (tested: 1 nM) | no binding (tested: 1 nM) | no binding (tested: 1 nM) | 25 | 

Source: paper PMC6133441, “Characterization of neutralizing antibodies reacting with the 213-224 amino-acid segment of human galectin-9” (PLoS ONE, 2018)
